Test results from article PMC2908215.

Biological target: T1, MLH1 p.Arg659Leu (human), P40692
T1 chain: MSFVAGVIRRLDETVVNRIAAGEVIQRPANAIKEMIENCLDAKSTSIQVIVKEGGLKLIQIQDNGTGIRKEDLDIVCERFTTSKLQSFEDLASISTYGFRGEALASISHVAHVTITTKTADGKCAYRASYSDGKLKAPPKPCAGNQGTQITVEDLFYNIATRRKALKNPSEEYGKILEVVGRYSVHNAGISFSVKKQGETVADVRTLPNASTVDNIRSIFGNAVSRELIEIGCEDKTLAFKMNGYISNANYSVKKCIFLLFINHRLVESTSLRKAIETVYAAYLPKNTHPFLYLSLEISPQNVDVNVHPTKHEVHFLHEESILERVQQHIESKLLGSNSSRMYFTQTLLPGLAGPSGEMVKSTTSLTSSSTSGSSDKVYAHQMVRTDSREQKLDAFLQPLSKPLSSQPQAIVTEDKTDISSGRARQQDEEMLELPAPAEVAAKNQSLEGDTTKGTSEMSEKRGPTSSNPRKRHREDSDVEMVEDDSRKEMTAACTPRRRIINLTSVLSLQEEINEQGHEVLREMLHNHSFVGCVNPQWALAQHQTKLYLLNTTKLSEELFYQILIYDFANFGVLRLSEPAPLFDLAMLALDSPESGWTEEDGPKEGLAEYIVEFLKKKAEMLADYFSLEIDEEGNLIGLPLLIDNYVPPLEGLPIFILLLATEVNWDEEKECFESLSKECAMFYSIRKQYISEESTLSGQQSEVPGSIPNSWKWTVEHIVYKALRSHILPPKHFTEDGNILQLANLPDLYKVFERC
Assay: co-IP
Details: remark: other sources report otherwise

co-precipitated PMS2 in relation to wild-type (% of wild-type): 77
B1: PMS2, P54278 1-862 (natural protein)
chain: MERAESSSTEPAKAIKPIDRKSVHQICSGQVVLSLSTAVKELVENSLDAGATNIDLKLKDYGVDLIEVSDNGCGVEEENFEGLTLKHHTSKIQEFADLTQVETFGFRGEALSSLCALSDVTISTCHASAKVGTRLMFDHNGKIIQKTPYPRPRGTTVSVQQLFSTLPVRHKEFQRNIKKEYAKMVQVLHAYCIISAGIRVSCTNQLGQGKRQPVVCTGGSPSIKENIGSVFGQKQLQSLIPFVQLPPSDSVCEEYGLSCSDALHNLFYISGFISQCTHGVGRSSTDRQFFFINRRPCDPAKVCRLVNEVYHMYNRHQYPFVVLNISVDSECVDINVTPDKRQILLQEEKLLLAVLKTSLIGMFDSDVNKLNVSQQPLLDVEGNLIKMHAADLEKPMVEKQDQSPSLRTGEEKKDVSISRLREAFSLRHTTENKPHSPKTPEPRRSPLGQKRGMLSSSTSGAISDKGVLRPQKEAVSSSHGPSDPTDRAEVEKDSGHGSTSVDSEGFSIPDTGSHCSSEYAASSPGDRGSQEHVDSQEKAPKTDDSFSDVDCHSNQEDTGCKFRVLPQPTNLATPNTKRFKKEEILSSSDICQKLVNTQDMSASQVDVAVKINKKVVPLDFSMSSLAKRIKQLHHEAQQSEGEQNYRKFRAKICPGENQAAEDELRKEISKTMFAEMEIIGQFNLGFIITKLNEDIFIVDQHATDEKYNFEMLQQHTVLQGQRLIAPQTLNLTAVNEAVLIENLEIFRKNGFDFVIDENAPVTERAKLISLPTSKNWTFGPQDVDELIFMLSDSPGVMCRPSRVKQMFASRACRKSVMIGTALNTSEMKKLITHMGEMDHPWNCPHGRPTMRHIANLGVISQN
